Test results taken from PMC6368843 (Biochemistry, 2016).
Residue numbers refer to the chain shown, from its start. Numbers in names are those of the source.

Assays:
Purβ I-II-III = target: T1, Purβ I-II-III (Mus musculus, UniProt O35295); assay: ssDNA-binding ELISA
T1 sequence (O35295 41-303): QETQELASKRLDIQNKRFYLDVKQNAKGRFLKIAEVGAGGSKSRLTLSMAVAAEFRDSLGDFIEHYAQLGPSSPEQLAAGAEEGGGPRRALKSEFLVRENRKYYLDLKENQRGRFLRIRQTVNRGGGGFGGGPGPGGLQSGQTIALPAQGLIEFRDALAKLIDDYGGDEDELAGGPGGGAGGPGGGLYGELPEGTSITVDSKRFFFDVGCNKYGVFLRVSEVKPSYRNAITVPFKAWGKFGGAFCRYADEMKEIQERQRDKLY

Purβ III = target: T2, Purβ III (Mus musculus, UniProt O35295); assay: ssDNA-binding ELISA
T2 sequence (O35295 209-303): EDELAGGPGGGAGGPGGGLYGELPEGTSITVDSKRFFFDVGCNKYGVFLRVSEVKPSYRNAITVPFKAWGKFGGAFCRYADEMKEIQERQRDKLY

[1] = target: T3, Purβ FL (full-length NHis-Purβ) (Mus musculus, UniProt O35295); assay: ssDNA-binding ELISA
T3 sequence (O35295 1-324): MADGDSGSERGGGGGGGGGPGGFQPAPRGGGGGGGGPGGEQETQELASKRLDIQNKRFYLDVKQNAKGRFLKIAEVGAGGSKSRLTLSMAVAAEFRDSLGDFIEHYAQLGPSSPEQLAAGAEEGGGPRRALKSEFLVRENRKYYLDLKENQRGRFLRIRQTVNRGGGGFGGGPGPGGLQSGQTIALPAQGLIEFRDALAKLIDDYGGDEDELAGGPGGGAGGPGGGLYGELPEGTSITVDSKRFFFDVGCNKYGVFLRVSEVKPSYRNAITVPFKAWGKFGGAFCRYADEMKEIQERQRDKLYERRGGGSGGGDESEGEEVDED

SEC = target: the molecule itself; assay: SEC
Purβ R267A = target: T4, Purβ R267A (Mus musculus, UniProt O35295 1-324, R267A); assay: ELISA
T4 sequence: T3 sequence (O35295 1-324) with R267A

Purβ R159A/R267A = target: T5, Purβ R159A/R267A (Mus musculus, UniProt O35295 1-324, R159A;R267A); assay: ELISA
T5 sequence: T3 sequence (O35295 1-324) with R159A, R267A

[2] = target: T6, Purβ FL (wild-type NHis-Purβ) (Mus musculus, UniProt O35295 1-324); assay: ELISA
T6 sequence: T3 sequence (O35295 1-324)

C[C@H](CCC(=O)O)[C@H]1CC[C@H]2[C@@H]3CC[C@@H]4C[C@H](O)CC[C@]4(C)[C@H]3C[C@H](O)[C@]12C [sodium deoxycholate]
IC50 (Purβ I-II-III): 2030 µM | IC50 (Purβ III): 1450 µM | IC50 [1]: 2360 µM

B1: Purβ K82A/R159A/R267A triple point mutant, N-terminally hexahistidine-tagged (natural protein, mouse, UniProt O35295 1-324, looked up)
chain: T3 sequence (O35295 1-324) with K82A, R159A, R267A
stoichiometry N (SEC): 2

B2: Purβ R267A single point mutant, N-terminally hexahistidine-tagged (natural protein, mouse, UniProt O35295 1-324, looked up)
chain: T3 sequence (O35295 1-324) with R267A
stoichiometry N (SEC): 2

B3: Purβ R159A/R267A double point mutant, N-terminally hexahistidine-tagged (natural protein, mouse, UniProt O35295 1-324, looked up)
chain: T3 sequence (O35295 1-324) with R159A, R267A
stoichiometry N (SEC): 2

GGGAGCAGAACAGAGGAATGCAGTGGAAGAGA (ssDNA) [PE32-bF]
Kd (Purβ R267A): 0.00057 ± 4e-05 µM | Kd (Purβ R159A/R267A): 0.0006 ± 4e-05 µM | Kd [2]: 0.00017 ± 1e-05 µM
